Assay results: US20130316941A1 (Boehringer Ingelheim, published 2013)

B1: H-HSHGTFTSDYSKYLDE-K(Hexadecanoyl-isoGlu)-RAKDFIEWLLSA-NH2 [Compound 18] (peptide)
peptide: HSHGTFTSDYSKYLDEKRAKDFIEWLLSA
HELM: PEPTIDE1{H.S.H.G.T.F.T.S.D.Y.S.K.Y.L.D.E.K.R.A.K.D.F.I.E.W.L.L.S.A.[am]}|PEPTIDE2{[CCCCCCCCCCCCCCCC(=O)[*:2]].[gGlu]}$PEPTIDE1,PEPTIDE2,17:R3-2:R2$$$V2.0
SMILES: CCCCCCCCCCCCCCCC(=O)N[C@@H](CCC(=O)NCCCC[C@H](NC(=O)[C@H](CCC(=O)O)NC(=O)[C@H](CC(=O)O)NC(=O)[C@H](CC(C)C)NC(=O)[C@H](Cc1ccc(O)cc1)NC(=O)[C@H](CCCCN)NC(=O)[C@H](CO)NC(=O)[C@H](Cc1ccc(O)cc1)NC(=O)[C@H](CC(=O)O)NC(=O)[C@H](CO)NC(=O)[C@@H](NC(=O)[C@H](Cc1ccccc1)NC(=O)[C@@H](NC(=O)CNC(=O)[C@H](Cc1c[nH]cn1)NC(=O)[C@H](CO)NC(=O)[C@@H](N)Cc1c[nH]cn1)[C@@H](C)O)[C@@H](C)O)C(=O)N[C@@H](CCCNC(=N)N)C(=O)N[C@@H](C)C(=O)N[C@@H](CCCCN)C(=O)N[C@@H](CC(=O)O)C(=O)N[C@@H](Cc1ccccc1)C(=O)N[C@H](C(=O)N[C@@H](CCC(=O)O)C(=O)N[C@@H](Cc1c[nH]c2ccccc12)C(=O)N[C@@H](CC(C)C)C(=O)N[C@@H](CC(C)C)C(=O)N[C@@H](CO)C(=O)N[C@@H](C)C(N)=O)[C@@H](C)CC)C(=O)O
B2: H-H-Aib-QGTFTSDYSRYLDE-K(Hexadecanoyl-isoGlu)-RAKDFIEWLLSA-NH2 [Compound 16] (peptide)
peptide: HXQGTFTSDYSRYLDEKRAKDFIEWLLSA
HELM: PEPTIDE1{H.[Aib].Q.G.T.F.T.S.D.Y.S.R.Y.L.D.E.K.R.A.K.D.F.I.E.W.L.L.S.A.[am]}|PEPTIDE2{[CCCCCCCCCCCCCCCC(=O)[*:2]].[gGlu]}$PEPTIDE1,PEPTIDE2,17:R3-2:R2$$$V2.0
SMILES: CCCCCCCCCCCCCCCC(=O)N[C@@H](CCC(=O)NCCCC[C@H](NC(=O)[C@H](CCC(=O)O)NC(=O)[C@H](CC(=O)O)NC(=O)[C@H](CC(C)C)NC(=O)[C@H](Cc1ccc(O)cc1)NC(=O)[C@H](CCCNC(=N)N)NC(=O)[C@H](CO)NC(=O)[C@H](Cc1ccc(O)cc1)NC(=O)[C@H](CC(=O)O)NC(=O)[C@H](CO)NC(=O)[C@@H](NC(=O)[C@H](Cc1ccccc1)NC(=O)[C@@H](NC(=O)CNC(=O)[C@H](CCC(N)=O)NC(=O)C(C)(C)NC(=O)[C@@H](N)Cc1c[nH]cn1)[C@@H](C)O)[C@@H](C)O)C(=O)N[C@@H](CCCNC(=N)N)C(=O)N[C@@H](C)C(=O)N[C@@H](CCCCN)C(=O)N[C@@H](CC(=O)O)C(=O)N[C@@H](Cc1ccccc1)C(=O)N[C@H](C(=O)N[C@@H](CCC(=O)O)C(=O)N[C@@H](Cc1c[nH]c2ccccc12)C(=O)N[C@@H](CC(C)C)C(=O)N[C@@H](CC(C)C)C(=O)N[C@@H](CO)C(=O)N[C@@H](C)C(N)=O)[C@@H](C)CC)C(=O)O
B3: H-H-Aib-QGTFTSDYSKYLDERRA-K(Hexadecanoyl-isoGlu)-DFIEWLLSA-NH2 [Compound 2] (peptide)
peptide: HXQGTFTSDYSKYLDERRAKDFIEWLLSA
HELM: PEPTIDE1{H.[Aib].Q.G.T.F.T.S.D.Y.S.K.Y.L.D.E.R.R.A.K.D.F.I.E.W.L.L.S.A.[am]}|PEPTIDE2{[CCCCCCCCCCCCCCCC(=O)[*:2]].[gGlu]}$PEPTIDE1,PEPTIDE2,20:R3-2:R2$$$V2.0
SMILES: CCCCCCCCCCCCCCCC(=O)N[C@@H](CCC(=O)NCCCC[C@H](NC(=O)[C@H](C)NC(=O)[C@H](CCCNC(=N)N)NC(=O)[C@H](CCCNC(=N)N)NC(=O)[C@H](CCC(=O)O)NC(=O)[C@H](CC(=O)O)NC(=O)[C@H](CC(C)C)NC(=O)[C@H](Cc1ccc(O)cc1)NC(=O)[C@H](CCCCN)NC(=O)[C@H](CO)NC(=O)[C@H](Cc1ccc(O)cc1)NC(=O)[C@H](CC(=O)O)NC(=O)[C@H](CO)NC(=O)[C@@H](NC(=O)[C@H](Cc1ccccc1)NC(=O)[C@@H](NC(=O)CNC(=O)[C@H](CCC(N)=O)NC(=O)C(C)(C)NC(=O)[C@@H](N)Cc1c[nH]cn1)[C@@H](C)O)[C@@H](C)O)C(=O)N[C@@H](CC(=O)O)C(=O)N[C@@H](Cc1ccccc1)C(=O)N[C@H](C(=O)N[C@@H](CCC(=O)O)C(=O)N[C@@H](Cc1c[nH]c2ccccc12)C(=O)N[C@@H](CC(C)C)C(=O)N[C@@H](CC(C)C)C(=O)N[C@@H](CO)C(=O)N[C@@H](C)C(N)=O)[C@@H](C)CC)C(=O)O
B4: H-H-Aib-PGTFTSDYSRYLDE-K(Hexadecanoyl-isoGlu)-RARDFIEWLLSA-NH2 [Compound 15] (peptide)
peptide: HXPGTFTSDYSRYLDEKRARDFIEWLLSA
HELM: PEPTIDE1{H.[Aib].P.G.T.F.T.S.D.Y.S.R.Y.L.D.E.K.R.A.R.D.F.I.E.W.L.L.S.A.[am]}|PEPTIDE2{[CCCCCCCCCCCCCCCC(=O)[*:2]].[gGlu]}$PEPTIDE1,PEPTIDE2,17:R3-2:R2$$$V2.0
SMILES: CCCCCCCCCCCCCCCC(=O)N[C@@H](CCC(=O)NCCCC[C@H](NC(=O)[C@H](CCC(=O)O)NC(=O)[C@H](CC(=O)O)NC(=O)[C@H](CC(C)C)NC(=O)[C@H](Cc1ccc(O)cc1)NC(=O)[C@H](CCCNC(=N)N)NC(=O)[C@H](CO)NC(=O)[C@H](Cc1ccc(O)cc1)NC(=O)[C@H](CC(=O)O)NC(=O)[C@H](CO)NC(=O)[C@@H](NC(=O)[C@H](Cc1ccccc1)NC(=O)[C@@H](NC(=O)CNC(=O)[C@@H]1CCCN1C(=O)C(C)(C)NC(=O)[C@@H](N)Cc1c[nH]cn1)[C@@H](C)O)[C@@H](C)O)C(=O)N[C@@H](CCCNC(=N)N)C(=O)N[C@@H](C)C(=O)N[C@@H](CCCNC(=N)N)C(=O)N[C@@H](CC(=O)O)C(=O)N[C@@H](Cc1ccccc1)C(=O)N[C@H](C(=O)N[C@@H](CCC(=O)O)C(=O)N[C@@H](Cc1c[nH]c2ccccc12)C(=O)N[C@@H](CC(C)C)C(=O)N[C@@H](CC(C)C)C(=O)N[C@@H](CO)C(=O)N[C@@H](C)C(N)=O)[C@@H](C)CC)C(=O)O
B5: H-H-DSer-PGTFTSDYSKYLDE-K(Hexadecanoyl-isoGlu)-RAKDFIEWLLSA-NH2 [Compound 21] (peptide)
peptide: HSPGTFTSDYSKYLDEKRAKDFIEWLLSA
HELM: PEPTIDE1{H.[dS].P.G.T.F.T.S.D.Y.S.K.Y.L.D.E.K.R.A.K.D.F.I.E.W.L.L.S.A.[am]}|PEPTIDE2{[CCCCCCCCCCCCCCCC(=O)[*:2]].[gGlu]}$PEPTIDE1,PEPTIDE2,17:R3-2:R2$$$V2.0
SMILES: CCCCCCCCCCCCCCCC(=O)N[C@@H](CCC(=O)NCCCC[C@H](NC(=O)[C@H](CCC(=O)O)NC(=O)[C@H](CC(=O)O)NC(=O)[C@H](CC(C)C)NC(=O)[C@H](Cc1ccc(O)cc1)NC(=O)[C@H](CCCCN)NC(=O)[C@H](CO)NC(=O)[C@H](Cc1ccc(O)cc1)NC(=O)[C@H](CC(=O)O)NC(=O)[C@H](CO)NC(=O)[C@@H](NC(=O)[C@H](Cc1ccccc1)NC(=O)[C@@H](NC(=O)CNC(=O)[C@@H]1CCCN1C(=O)[C@@H](CO)NC(=O)[C@@H](N)Cc1c[nH]cn1)[C@@H](C)O)[C@@H](C)O)C(=O)N[C@@H](CCCNC(=N)N)C(=O)N[C@@H](C)C(=O)N[C@@H](CCCCN)C(=O)N[C@@H](CC(=O)O)C(=O)N[C@@H](Cc1ccccc1)C(=O)N[C@H](C(=O)N[C@@H](CCC(=O)O)C(=O)N[C@@H](Cc1c[nH]c2ccccc12)C(=O)N[C@@H](CC(C)C)C(=O)N[C@@H](CC(C)C)C(=O)N[C@@H](CO)C(=O)N[C@@H](C)C(N)=O)[C@@H](C)CC)C(=O)O

These binders were tested against human glucagon-like peptide 1 receptor (GLP-1R) (human, UniProt P43220 24-463) (assay: cell-based or functional assay).

| Binder | EC50 values for cAMP generation in HEK293 cells expressing GLP-1 receptor |
| --- | --- |
| B1 | 0.09 nM |
| B2 | 0.06 nM |
| B3 | 0.36 nM |
| B4 | 0.06 nM |
| B5 | 0.08 nM |

Each binder was assayed against human glucagon receptor (Glucagon-R) (human, UniProt P47871 26-477) (assay: cell-based or functional assay).
Chain of human glucagon receptor (Glucagon-R) (P47871 26-477): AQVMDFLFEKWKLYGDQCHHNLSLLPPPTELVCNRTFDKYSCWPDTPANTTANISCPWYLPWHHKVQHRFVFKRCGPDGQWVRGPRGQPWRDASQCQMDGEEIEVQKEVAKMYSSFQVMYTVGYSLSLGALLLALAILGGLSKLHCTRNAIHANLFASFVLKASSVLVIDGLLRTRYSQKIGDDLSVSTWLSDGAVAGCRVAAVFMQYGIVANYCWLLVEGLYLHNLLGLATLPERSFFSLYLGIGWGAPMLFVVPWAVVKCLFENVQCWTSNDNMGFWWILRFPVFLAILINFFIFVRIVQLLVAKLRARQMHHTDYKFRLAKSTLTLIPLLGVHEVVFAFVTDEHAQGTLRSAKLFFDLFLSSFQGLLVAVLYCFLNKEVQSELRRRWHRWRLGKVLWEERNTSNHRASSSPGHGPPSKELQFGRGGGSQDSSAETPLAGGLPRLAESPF

| Binder | EC50 values for cAMP generation in HEK293 cells expressing Glucagon receptor |
| --- | --- |
| B1 | 0.09 nM |
| B2 | 0.11 nM |
| B3 | 0.35 nM |
| B4 | 0.42 nM |
| B5 | 0.21 nM |
